Results on 1 substance are retold here after patent publication US20230183318A1.

pKd: −log10 of the molar value.

One may read the pKd as −log10 of the Kd, conventionally taken in molar units. A high value points to a low Kd.

This test has as its target PD-L1. The experiment in a line: -; literature value (Cheng et al., 2013).

PD-1 WT showed a pKd of 5.09.
